This is an account of results in patent US20230097015A1 (SEOUL NATIONAL UNIVERSITY R AND DB FOUNDATION, published 2023).

Series [1] addresses T1, 4CL-MlnB COM^D (Bacillus amyloliquefaciens, UniProt Q42524 1-561).
T1 construct: Unlabelled protein as used in SEC/native PAGE and in the two-step naringenin reaction; also called 4-coumarate-CoA ligase fused to MlnB COM donor domain; not shown: N-terminal His-tag from pET15b vector
T1 sequence: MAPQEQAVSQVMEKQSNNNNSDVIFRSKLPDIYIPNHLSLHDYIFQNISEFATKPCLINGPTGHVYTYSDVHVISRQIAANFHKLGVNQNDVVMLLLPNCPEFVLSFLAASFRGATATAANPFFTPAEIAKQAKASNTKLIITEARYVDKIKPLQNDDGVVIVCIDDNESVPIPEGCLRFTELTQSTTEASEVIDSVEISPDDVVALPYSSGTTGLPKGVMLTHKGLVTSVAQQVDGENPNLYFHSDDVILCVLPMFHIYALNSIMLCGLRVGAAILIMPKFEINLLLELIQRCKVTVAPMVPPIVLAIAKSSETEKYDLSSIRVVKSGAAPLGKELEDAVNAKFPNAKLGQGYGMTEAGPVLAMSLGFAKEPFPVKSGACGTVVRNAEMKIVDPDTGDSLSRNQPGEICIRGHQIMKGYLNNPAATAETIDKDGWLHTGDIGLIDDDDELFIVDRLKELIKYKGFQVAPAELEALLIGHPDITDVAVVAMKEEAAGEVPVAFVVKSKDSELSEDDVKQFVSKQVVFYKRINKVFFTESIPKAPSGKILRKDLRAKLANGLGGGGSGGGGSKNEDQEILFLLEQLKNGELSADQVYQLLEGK
Description: analytical SEC-FPLC of a 1:1 mixture and native PAGE.

Series [2] concerns the target T2, Cy3-labeled 4CL-MlnB COM^D (Bacillus amyloliquefaciens, UniProt Q42524 1-561, Cy3-NHS ester linked to naturally occurring lysine residues (positions not stated)).
T2 construct: Dye-labelled form used in the three-channel FRET analysis; also called 4CL-MlnB COMD labeled with Cy3; not shown: N-terminal His-tag from pET15b vector
T2 sequence: T1 sequence
The experiment in a line: Cy3/Cy5 FRET, three channels.

Series [3] deals with T3, MlnC COM^A-AAL.
T3 chain: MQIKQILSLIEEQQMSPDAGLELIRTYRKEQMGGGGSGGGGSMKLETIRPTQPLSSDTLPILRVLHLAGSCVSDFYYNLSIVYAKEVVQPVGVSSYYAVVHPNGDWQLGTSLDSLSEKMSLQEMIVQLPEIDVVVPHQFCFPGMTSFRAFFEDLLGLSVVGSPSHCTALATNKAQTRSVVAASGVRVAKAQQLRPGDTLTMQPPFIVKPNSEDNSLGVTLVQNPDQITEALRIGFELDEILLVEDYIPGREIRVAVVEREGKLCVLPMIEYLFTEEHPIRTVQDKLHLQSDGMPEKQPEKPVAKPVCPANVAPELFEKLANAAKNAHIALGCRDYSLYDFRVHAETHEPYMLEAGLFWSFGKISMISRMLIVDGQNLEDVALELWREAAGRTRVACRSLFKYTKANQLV

B1: MlnC COM^A-CHS (enzyme)
chain: MQIKQILSLIEEQQMSPDAGLELIRTYRKEQMGGGGSGGGGSGGGGSMVTVEEYRKAQRAEGPATVMAIGTATPSNCVDQSTYPDFYFRITNSEHKTDLKEKFKRMCEKSMIKKRYMHLTEEILKENPSMCEYMAPSLDARQDIVVVEVPKLGKEAAQKAIKEWGQPKSKITHLVFCTTSGVDMPGCDYQLTKLLGLRPSVKRLMMYQQGCFAGGTVLRLAKDLAENNKGARVLVVCSEITAVTFRGPNDTHLDSLVGQALFGDGAGAIIIGSDPIPGVERPLFELVSAAQTLLPDSHGAIDGHLREVGLTFHLLKDVPGLISKNIEKSLEEAFKPLGISDWNSLFWIAHPGGPAILDQVEIKLGLKPEKLKATRNVLSNYGNMSSACVLFILDEMRKASAKEGLGTTGEGLEWGVLFGFGPGLTVETVVLHSVAT
notes: Unlabelled protein as used in SEC/native PAGE and in the two-step naringenin reaction; also called chalcone synthase fused to MlnC COM acceptor domain; not shown: C-terminal His-tag from pET21c vector
B1: in series [1], the binding result is on record as “binds”.

B2: Cy5-labeled MlnC COM^A-CHS (enzyme)
chain: B1 chain
modifications: Cy5-NHS ester linked to naturally occurring lysine residues (positions not stated)
notes: Dye-labelled form used in the three-channel FRET analysis; also called MlnC COMA-CHS labeled with Cy5; not shown: C-terminal His-tag from pET21c vector
For B2, the binding result in series [2] is listed as “binds”.

B3: MlnB COM^D-CNL (protein)
chain: KNEDQEILFLLEQLKNGELSADQVYQLLEGKGGGSMAQSISLSLPQSTTPSKGVRLKIAALLKTIGTLILLLIALPLNALIVLISLMCRPFTKKPAVATHPQNILVSGGKMTKALQLARSFHAAGHRVILIEGHKYWLSGHRFSNSVSRFYTVPAPQDDPEGYTQALLEIVKREKIDVYVPVCSPVASYYDSLAKSALSEYCEVFHFDADITKMLDDKFAFTDRARSLGLSAPKSFKITDPEQVINFDFSKETRKYILKSISYDSVRRLNLTKLPCDTPEETAAFVKSLPISPEKPWIMQEFIPGKELCTHSTVRDGELRLHCCSNSSAFQINYENVENPQIQEWVQHFVKSLRLTGQISLDFIQAEDGTAYAIECNPRTHSAITMFYNHPGVAEAYLGKTPLAAPLEPLADSKPTYWIYHEIWRLTGIRSGQQLQTWFGRLVRGTDAIYRLDDPIPFLTLHHWQITLLLLQNLQRLKGWVKIDFNIGKLVELGGD
For the molecule B3, the “shinorine production in Saccharomyces cerevisiae (HPLC), against free or singly fused CNL and AAL” value in series [3] is listed as “shinorine production increased by about 1.3 times”.
